From patent US20020164696

T1: synthetic peptide corresponding to bovine kappa-CN
T1 chain: HPHPHLSXMAI

T2: synthetic peptide corresponding to camel kappa-CN
T2 chain: RPRPRPSXIAI


What was measured:
[1] = molecular target: T1, synthetic peptide corresponding to …
[2] = molecular target: T2, synthetic peptide corresponding to …

Row | Protein | KM for Bt κ-CN [1] | kcat for Bt κ-CN [1] | KM for Cd κ-CN [2] | kcat for Cd κ-CN [2]
1 | recombinantly produced bovine chymosin, ChyMax (protein) GEVASVPLTNYLDSQYFGKIYLGTPPQEFTVLFDTGSSDFWVPSIYCKSNACKNHQRFDPRKSSTFQNLGKPLSIHYGTGSMQGILGYDTVTVSNIVDIQQTVGLSTQEPGDVFTYAEFDGILGMAYPSLASEYSIPVFDNMMNRHLVAQDLFSVYMDRNGQESMLTLGAIDPSYYTGSLHWVPVTVQQYWQFTVDSVTISGVVVACEGGCQAILDTGTSKLVGPSSDILNIQQAIGATQNQYGEFDIDCDNLSYMPTVVFEINGKMYPLTPSAYTSQDQGFCTSGFQSENHSQKWILGDVFIREYYSVFDRANNLVGLAKAI | 0.165 ± 0.015/-0.014 mM | 44.3 s⁻¹ | 0.134 ± 0.022/-0.021 mM | 4.3 s⁻¹
2 | recombinant Camelus dromedarius chymosin (protein) GKVAREPLTSYLDSQYFGKIYIGTPPQEFTVVFDTGSSDLWVPSIYCKSNVCKNHHRFDPRKSSTFRNLGKPLSIHYGTGSMEGFLGYDTVTVSNIVDPNQTVGLSTEQPGEVFTYSEFDGILGLAYPSLASEYSVPVFDNMMDRHLVARDLFSVYMDRNGQGSMLTLGAIDPSYYTGSLHWVPVTLQQYWQFTVDSVTINGVAVACVGGCQAILDTGTSVLFGPSSDILKIQMAIGATENRYGEFDVNCGNLRSMPTVVFEINGRDYPLSPSAYTSKDQGFCTSGFQGDNNSELWILGDVFIREYYSVFDRANNRVGLAKAI | 0.077 ± 0.019/-0.015 mM | 11.7 ± 1.5/-1.2 s^-1 | 0.056 ± 0.035/-0.021 mM | 5.1 ± 1.7/-1.0 s^-1
